{"source": "paper PMC5521201", "target": "T1, CTCF (UniProt P49711 1-727)", "T1 sequence": "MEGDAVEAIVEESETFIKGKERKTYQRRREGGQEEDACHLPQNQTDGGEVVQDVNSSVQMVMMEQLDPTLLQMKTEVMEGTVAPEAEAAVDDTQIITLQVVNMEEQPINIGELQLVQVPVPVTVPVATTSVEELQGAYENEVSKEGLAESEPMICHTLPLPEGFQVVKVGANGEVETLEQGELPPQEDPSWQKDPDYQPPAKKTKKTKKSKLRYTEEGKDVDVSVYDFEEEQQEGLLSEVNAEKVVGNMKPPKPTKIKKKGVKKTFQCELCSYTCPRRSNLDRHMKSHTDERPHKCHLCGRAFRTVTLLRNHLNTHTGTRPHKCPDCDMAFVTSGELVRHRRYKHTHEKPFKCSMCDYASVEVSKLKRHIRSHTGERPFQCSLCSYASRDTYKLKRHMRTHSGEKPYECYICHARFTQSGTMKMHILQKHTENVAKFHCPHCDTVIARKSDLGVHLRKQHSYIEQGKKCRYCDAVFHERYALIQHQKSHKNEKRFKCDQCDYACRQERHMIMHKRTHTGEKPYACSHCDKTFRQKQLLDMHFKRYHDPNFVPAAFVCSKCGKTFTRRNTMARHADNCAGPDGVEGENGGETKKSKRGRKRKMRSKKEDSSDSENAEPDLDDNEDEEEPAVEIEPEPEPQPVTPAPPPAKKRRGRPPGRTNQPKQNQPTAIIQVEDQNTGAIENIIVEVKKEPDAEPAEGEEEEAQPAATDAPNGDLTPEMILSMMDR", "assay": "EMSA"}
{"binder": "CTCF WT (BZLF1 promoter CTCF site) (dsDNA) DNA 1: TCGTCCAAATGGCCACGAGGGGGCGGGTGGCTCAGGTC DNA 2: GACCTGAGCCACCCGCCCCCTCGTGGCCATTTGGACGA", "values": [{"measurement": "binding result", "result": "binds"}]}
